Assay results reported in patent US20240109945A1 (UNIVERSITY OF GEORGIA RESEARCH FOUNDATION, published 2024).
Residue numbers refer to the chain shown, from its start.

T1: Fetuin (bovine, UniProt P12763 19-359, heavily sialylated glycoprotein)
T1 sequence (looked up): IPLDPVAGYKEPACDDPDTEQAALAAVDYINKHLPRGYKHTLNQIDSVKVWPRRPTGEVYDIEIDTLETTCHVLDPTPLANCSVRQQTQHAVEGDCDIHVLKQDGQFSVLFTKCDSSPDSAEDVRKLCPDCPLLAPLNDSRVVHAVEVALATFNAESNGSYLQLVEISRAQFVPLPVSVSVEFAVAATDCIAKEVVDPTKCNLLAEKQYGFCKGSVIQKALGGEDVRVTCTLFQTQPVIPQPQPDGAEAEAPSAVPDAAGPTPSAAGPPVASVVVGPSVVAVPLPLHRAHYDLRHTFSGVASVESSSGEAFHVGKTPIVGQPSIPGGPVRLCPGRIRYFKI

T2: Asialofetuin (bovine, UniProt P12763 19-359, glycoprotein; desialylated form of Fetuin)
T2 construct: also called AF; desialylated Asialofetuin
T2 sequence (looked up): T1 sequence (looked up)

B1: Variant Fbs1-1 (designed binder)
chain: MGSSHHHHHHHHSSGENLYFQSHMASQQEGLVPEGSADEERDHWQQFYFLSKRRRNLLRNPCGEEDLEGWSDVEHGGDGWRVEELPGDNGVEFTQDDSVKKYFASSFEWCRKAQVIDLQAEGYWEELLDTTQPAIVVKDWYSGRTDAGSLYELTVRLLSENEDVLAEFATGQVAVPEDGSWMEISHTFIDYGPGVRFVRFEHGGQDSVYWKGWFGARVTNSSVWVEP
notes: Expressed in E. coli and purified by IMAC
B2: Variant Fbs1-2 (designed binder)
chain: B1 chain with F107Y, E108R

Key:
Fetuin = target: T1, Fetuin; assay: Western blot, 1 µg glycoprotein, Fbs1 variant as probe
Experimental: (§1) Lanes of each blot are labelled to show results for samples (1 μg each) of glycoproteins Asialofetuin, Fetuin, RNase B, Ovalbumin, Horse Radish Peroxidase, and IgG polyclonal antibody from rabbit, and a non-glycosylated protein RNase A, that were separated by SDS-PAGE, blotted on nitrocellulose membrane, and probed with Fbs1-1 (left blot) or Fbs1-2 (right blot).

Asialofetuin = target: T2, Asialofetuin; assay: as above
Experimental: as §1

Binder | binding result (Fetuin) | binding result (Asialofetuin)
B1 | binds | binds
B2 | binds | binds
